Test results taken from publication PMC6126647.

Target: MmCPDII (class II CPD photolyase) (UniProt Q8PYK9 1-464)
Test: X-ray crystallography (2.7 A); oxidized FAD; dark, unrepaired CPD; Co-crystallization: protein in 10 mM Tris-HCl pH 8.0, 100 mM NaCl with 1.25x dsDNA (in 100 mM Tris-HCl pH 8.0, 100 mM NaCl), 30 min in dark; mixed 1:1 with 0.1

B1: 14-mer duplex with natural phosphodiester-linked cis-syn CPD (PDM DNA) (dsDNA)
DNA 1: ATCGGCTTCGCGCA
DNA 2: TGCGCGAAGCCGAT
modifications: cis-syn cyclobutane thymine dimer T7<>T8 in strand 1, natural intra-lesion phosphodiester
Question: Does B1 bind?
Answer: binds
